Data from US20190100597A1 (IGM BIOSCIENCES, published 2019).
Blank lines part the entries; values can stand above or below the binder they belong to.

How the values were obtained:
Test in all cases: cell-based or functional assay
[1] = molecular target: T1, human CD20 on CD20-expressing cell lines (human, UniProt P11836 1-297)
T1 sequence: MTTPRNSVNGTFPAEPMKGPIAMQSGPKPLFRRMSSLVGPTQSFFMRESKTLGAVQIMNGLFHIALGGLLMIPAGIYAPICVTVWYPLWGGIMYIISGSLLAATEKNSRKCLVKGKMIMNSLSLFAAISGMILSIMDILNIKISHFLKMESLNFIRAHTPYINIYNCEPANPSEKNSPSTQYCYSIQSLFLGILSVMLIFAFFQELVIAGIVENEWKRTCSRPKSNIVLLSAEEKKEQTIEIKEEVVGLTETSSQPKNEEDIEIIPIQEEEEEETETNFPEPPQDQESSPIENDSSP

[2] = molecular target: T1, human CD20 on CD20-expressing cell lines; remark: listed apart in the source
[3] = molecular target: T1, human CD20 on CD20-expressing cell lines; remark: listed apart in the source
[4] = molecular target: T1, human CD20 on CD20-expressing cell lines; remark: listed apart in the source

CDC (IC50) on Raji cells [1]: > 50 µg/mL
CDC EC50 on DOHH-2 cells [3]: 22 nM
CDC EC50 on Z-138 cells [3]: > 100 nM
B1: rituximab (IgG1) (antibody, V domains shown)
VH: QVQLQQPGAELVKPGASVKMSCKASGYTFTSYNMHWVKQTPGRGLEWIGAIYPGNGDTSYNQKFKGKATLTADKSSSTAYMQLSSLTSEDSAVYYCARSTYYGGDWYFNVWGAGTTVTVSA
VL: QIVLSQSPAILSASPGEKVTMTCRASSSVSYIHWFQQKPGSSPKPWIYATSNLASGVPVRFSGSGSGTSYSLTISRVEAEDAATYYCQQWTSNPPTFGGGTKLEIKR
KILR cytotoxicity assay, potency relative to the 1.5.3 IgM antibodies [2]: ≥ 30 fold less potent

CDC EC50 on DOHH-2 cells [3]: 4.6 nM
CDC EC50 on Z-138 cells [3]: > 100 nM
B3: 1.5.3 IgG (IgG1) (antibody, V domains shown)
VH: EVQLVQSGAEVKKPGESLKISCKGSGYSFTSYWIGWVRQMPGKGLEWMGIIYPGDSDTRYSPSFQGQVTISADKSITTAYLQWSSLKASDTAMYYCARHPSYGSGSPNFDYWGQGTLVTVSS
VL: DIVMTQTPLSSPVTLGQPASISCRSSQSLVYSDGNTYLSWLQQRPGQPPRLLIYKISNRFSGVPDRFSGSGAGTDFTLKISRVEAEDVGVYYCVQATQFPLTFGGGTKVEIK

Further lines, the binder ahead of its results:

B2: 1.5.3 IgM+V15J (bispecific anti-CD20 x anti-CD3 IgM pentamer) (bispecific antibody)
heavy: EVQLVQSGAEVKKPGESLKISCKGSGYSFTSYWIGWVRQMPGKGLEWMGIIYPGDSDTRYSPSFQGQVTISADKSITTAYLQWSSLKASDTAMYYCARHPSYGSGSPNFDYWGQGTLVTVSSGSASAPTLFPLVSCENSPSDTSSVAVGCLAQDFLPDSITFSWKYKNNSDISSTRGFPSVLRGGKYAATSQVLLPSKDVMQGTDEHVVCKVQHPNGNKEKNVPLPVIAELPPKVSVFVPPRDGFFGNPRKSKLICQATGFSPRQIQVSWLREGKQVGSGVTTDQVQAEAKESGPTTYKVTSTLTIKESDWLSQSMFTCRVDHRGLTFQQNASSMCVPDQDTAIRVFAIPPSFASIFLTKSTKLTCLVTDLTTYDSVTISWTRQNGEAVKTHTNISESHPNATFSAVGEASICEDDWNSGERFTCTVTHTDLPSPLKQTISRPKGVALHRPDVYLLPPAREQLNLRESATITCLVTGFSPADVFVQWMQRGQPLSPEKYVTSAPMPEPQAPGRYFAHSILTVSEEEWNTGETYTCVVAHEALPNRVTERTVDKSTGKPTLYNVSLVMSDTAGTCY
light: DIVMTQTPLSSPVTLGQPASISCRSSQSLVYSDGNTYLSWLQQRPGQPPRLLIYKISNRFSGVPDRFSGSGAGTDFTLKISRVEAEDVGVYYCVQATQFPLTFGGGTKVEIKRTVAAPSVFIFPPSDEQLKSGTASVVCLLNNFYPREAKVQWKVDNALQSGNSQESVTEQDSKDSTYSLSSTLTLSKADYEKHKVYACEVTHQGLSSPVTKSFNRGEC
chain: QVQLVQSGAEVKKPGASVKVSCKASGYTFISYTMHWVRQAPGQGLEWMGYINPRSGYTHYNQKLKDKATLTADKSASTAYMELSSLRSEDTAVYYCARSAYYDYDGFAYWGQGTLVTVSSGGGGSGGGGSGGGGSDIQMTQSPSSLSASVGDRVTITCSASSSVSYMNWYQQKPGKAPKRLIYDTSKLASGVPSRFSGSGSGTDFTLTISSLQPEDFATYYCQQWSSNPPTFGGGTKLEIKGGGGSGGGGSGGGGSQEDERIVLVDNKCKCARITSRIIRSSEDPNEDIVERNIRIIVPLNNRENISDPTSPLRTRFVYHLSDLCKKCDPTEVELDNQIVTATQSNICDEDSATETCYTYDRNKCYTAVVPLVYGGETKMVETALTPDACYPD
T-cell directed B-cell killing, LDH release, EC50 on DB cells (molar) [2]: 0.0004 nM
T-cell directed B-cell killing, LDH release, EC50 on DB cells [4]: 0.0004 µg/mL
T-cell directed B-cell killing, LDH release, EC50 on DOHH2 cells [4]: 0.012 µg/mL
T-cell directed B-cell killing, LDH release, EC50 on Z-138 cells [4]: 0.033 µg/mL

B4: Rituxan IgM+V15J (bispecific anti-CD20 x anti-CD3 IgM pentamer) (bispecific antibody)
heavy: QVQLQQPGAELVKPGASVKMSCKASGYTFTSYNMHWVKQTPGRGLEWIGAIYPGNGDTSYNQKFKGKATLTADKSSSTAYMQLSSLTSEDSAVYYCARSTYYGGDWYFNVWGAGTTVTVSSGSASAPTLFPLVSCENSPSDTSSVAVGCLAQDFLPDSITFSWKYKNNSDISSTRGFPSVLRGGKYAATSQVLLPSKDVMQGTDEHVVCKVQHPNGNKEKNVPLPVIAELPPKVSVFVPPRDGFFGNPRKSKLICQATGFSPRQIQVSWLREGKQVGSGVTTDQVQAEAKESGPTTYKVTSTLTIKESDWLSQSMFTCRVDHRGLTFQQNASSMCVPDQDTAIRVFAIPPSFASIFLTKSTKLTCLVTDLTTYDSVTISWTRQNGEAVKTHTNISESHPNATFSAVGEASICEDDWNSGERFTCTVTHTDLPSPLKQTISRPKGVALHRPDVYLLPPAREQLNLRESATITCLVTGFSPADVFVQWMQRGQPLSPEKYVTSAPMPEPQAPGRYFAHSILTVSEEEWNTGETYTCVVAHEALPNRVTERTVDKSTGKPTLYNVSLVMSDTAGTCY
light: QIVLSQSPAILSASPGEKVTMTCRASSSVSYIHWFQQKPGSSPKPWIYATSNLASGVPVRFSGSGSGTSYSLTISRVEAEDAATYYCQQWTSNPPTFGGGTKLEIKRTVAAPSVFIFPPSDEQLKSGTASVVCLLNNFYPREAKVQWKVDNALQSGNSQESVTEQDSKDSTYSLSSTLTLSKADYEKHKVYACEVTHQGLSSPVTKSFNRGEC
chain: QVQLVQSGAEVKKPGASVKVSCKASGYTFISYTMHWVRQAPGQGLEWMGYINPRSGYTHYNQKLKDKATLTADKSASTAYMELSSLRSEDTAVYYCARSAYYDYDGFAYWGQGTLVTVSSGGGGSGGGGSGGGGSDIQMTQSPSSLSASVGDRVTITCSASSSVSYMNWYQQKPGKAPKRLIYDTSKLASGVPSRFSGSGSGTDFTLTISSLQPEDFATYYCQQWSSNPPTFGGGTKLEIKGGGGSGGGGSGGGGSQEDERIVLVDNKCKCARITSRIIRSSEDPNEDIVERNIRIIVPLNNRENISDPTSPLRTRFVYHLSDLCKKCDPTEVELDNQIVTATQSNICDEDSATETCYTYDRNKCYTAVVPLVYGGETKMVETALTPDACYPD
T-cell directed B-cell killing, LDH release, EC50 on DB cells [4]: 0.0005 µg/mL
T-cell directed B-cell killing, LDH release, EC50 on DOHH2 cells [4]: 0.013 µg/mL
T-cell directed B-cell killing, LDH release, EC50 on Z-138 cells [4]: 0.03 µg/mL
